Source: US8809287B2, “Compositions and methods for altering Wnt autocrine signaling” (Icahn School of Medicine at Mount Sinai, priority 2004, dated 2014)

Experiments:
HCT116 cell lines = assay: Tumorigenicity of HCT116 cell lines injected subcutaneously in nude mice; assay type: in vivo
Experimental: To assess the effects of Wnt autocrine inhibition in vivo, tumorigenicity experiments were performed utilizing parental or β-catenin wild type allele containing HCT116 cell lines, in which stable marker selected mass cultures expressing FRP1 were obtained. Parental and wild type β-catenin allele containing HCT116 cells were transfected with either vector control or FRP1. Marker selected mass cultures of each were subcutaneously injected in 6 week old nude mice at 2.5×10^6 cells per site. Tumor growth was monitored at weekly intervals as previously described (Pierce et al. (1991) Oncogene 6:1189-1194). Values in FIG. 7F represent the mean (± standard deviation) of 4 inoculation cites per cell line. […] All of these findings establish that autocrine Wnt signaling can be present in human colon carcinoma cells that harbor downstream lesions within the canonical pathway.

uncomplexed β-catenin [1] = assay: Uncomplexed β-catenin in A1847 ovarian tumor cells; assay type: cell-based, human; conditions: FRP1-HA retrovirus
Experimental: (§1) β-catenin levels were assessed using the GST-E-cadherin binding assay, which has been previously described (Bafico et al., (1998) Oncogene 16:2819-2825). Briefly, bacterially expressed GST-E-cadherin was purified with glutathione-Sepharose beads and incubated with 1 mg of each cell lysate. The GST-E-cadherin/[…]-catenin complex bound to the beads was recovered by centrifugation and analyzed by SDS-PAGE followed by immunoblotting. The uncomplexed β-catenin was detected using a monoclonal antibody to β-catenin (Transduction Laboratories). Unphosphorylated β-catenin was detected with a monoclonal antibody specific for β-catenin dephosphorylated at residues 27-37 (Alexis, Läufelfingen, Switzerland). FRP1-HA and DKK1-HA were detected with an anti-HA monoclonal antibody (Hybridoma Center, Mount Sinai School of Medicine, New York).
(§2) Breast (MDAMB231, ATCC No. HTB-26) and ovarian A1847 tumor cell lines were infected with vector alone or FRP 1-HA (described in Example 1) retroviruses and marker selected. […] Breast (MDAMB231) and ovarian A1847 tumor cell lines were analyzed for uncomplexed β-catenin and FRP 1-HA by immunoblot analysis with either an anti-β-catenin antibody (Transduction Laboratories) or an anti-HA antibody (Hybridoma Center, Mount Sinai School of Medicine, New York). […]

H1355 = assay: tBh-induced apoptosis in H1355 NSCLC cells; assay type: cell-based, human; conditions: H1355 NSCLC cells (data not shown)
Experimental: To assess the effects of Wnt inhibition by FRP1 or DKK1 on the response of MDAMB157 cells to apoptotic stimuli, we exposed AB589 or MDAMB157 cells expressing either vector control, FRP1 or DKK1 to increasing concentrations of tert-butyl hydroperoxide (tBh) (Sigma) a known inducer of oxidative stress that causes DNA damage through reactive oxygen species (ROS) (Macip et al., (2003) Mol. Cell. Biol. 23:8576-8585), and analyzed the apoptotic response. Sub-confluent cultures were treated with increasing amounts of tert-butyl hydroperoxide (tBH) for 2 hours. Twenty-four hours later, cells were washed in PBS, trypsinized and incubated with Annexin and PI using the Annexin-V-Fluos Staining kit (Roche). Fluorescent stained cells were subjected to FACS (Beckton Dickinson FACScan) using Cell Quest 3.2 software (Beckton Dickinson) for acquisition and analysis.
We have also tested the effects of tBh on lung tumor cells with autocrine Wnt signaling in the presence or absence of the Wnt antagonists FRP and DKK. […] These findings indicate that inhibition of a Wnt autocrine signaling mechanism in tumor cells by Wnt antagonists such as FRP or DKK would make them more sensitive to the killing effects of standard chemo or irradiation therapies. We noted that levels of expression of these antagonists decreased with passage of the transfected and marker selected tumor cells.

[2] = tested on: TCF-dependent reporter activity; assay: TOP-Glow/FOP-Glow TCF reporter assay in HCT116 wild type β-catenin allele clone; assay type: cell-based, human
Experimental: TCF responsive elements operably linked to a reporter (TOP-Glow, wild type, or FOP-Glow, mutant) were analyzed for transcriptional activity in […]. HCT116 (ATCC No. CCL-247) cells containing the wild type β-catenin allele were plated at 3×10^5 per well in 6-well plates and co-transfected with 1 μg of either the TOP-glow or FOP-glow plasmids (Upstate Biotechnology) and 0.001 μg of the Renilla control plasmid (pRL-CMV) utilizing FuGene® (Roche) according to the manufacturer's instructions. After 48 hours cells were lysed and analyzed utilizing the Dual Luciferase Reporter Assay system (Promega).

uncomplexed β-catenin [3] = assay: Uncomplexed β-catenin in MDAMB231 breast tumor cells; assay type: cell-based, human; conditions: FRP1-HA retrovirus
Experimental: as §1, §2

uncomplexed β-catenin [4] = assay: Uncomplexed β-catenin in PAI ovarian tumor cells; assay type: cell-based, human; conditions: DKK1-HA retrovirus
Experimental: as §1, §2

uncomplexed β-catenin [5] = assay: Uncomplexed β-catenin in HCC38 and other positive breast cancer cell lines; assay type: cell-based, human; conditions: HCC38 and several positive breast cancer lines; DKK1-containing conditioned media for two hours
Experimental: as §1
In addition, we have analyzed about 20 additional human breast cancer cell lines for increased levels of uncomplexed β-catenin. Analysis of uncomplexed β-catenin levels was performed as described in Example 3 utilizing 1 mg of total cell lysate. A monoclonal antibody to β-catenin (Transduction Laboratories) was utilized for immunoblotting. We found increased levels of uncomplexed β-catenin in 6 of these cell lines (FIG. 3A, lanes 1, 3, 4 and data not shown). We have also analyzed DKK inhibition of autocrine Wnt signaling in HCC38 breast cancer cells. […]

Molecule | tumor growth (HCT116 cell lines; parental HCT116 cells expressing FRP1, subcutaneous in nude mice) | tumor forming ability (HCT116 cell lines; β-catenin wild type allele containing HCT116 cells expressing FRP1, subcutaneous in nude mice) | constitutively up-regulated β-catenin (uncomplexed β-catenin [1]) | sensitivity to induction of apoptosis by tBh (H1355) | TCF-dependent reporter activity [2] | constitutively up-regulated β-catenin (uncomplexed β-catenin [3]) | constitutively up-regulated β-catenin (uncomplexed β-catenin [4]) | uncomplexed β-catenin levels (uncomplexed β-catenin [5])
FRP1: human secreted Frizzled Related Protein 1, Wnt antagonist; expressed from pBabe-derived retrovirus with carboxy-terminal HA tag (protein, UniProt Q8N474 32-314, looked up, C-terminal HA tag, human secreted Frizzled Related Protein 1, Wnt antagonist; expressed from pBabe-derived retrovirus with carboxy-terminal HA tag) Secreted frizzled-related …: SEYDYVSFQSDIGPYQSGRFYTKPPQCVDIPADLRLCHNVGYKKMVLPNLLEHETMAEVKQQASSWVPLLNKNCHAGTQVFLCSLFAPVCLDRPIYPCRWLCEAVRDSCEPVMQFFGFYWPEMLKCDKFPEGDVCIAMTPPNATEASKPQGTTVCPPCDNELKSEAIIEHLCASEFALRMKIKEVKKENGDKKIVPKKKKPLKLGPIKKKDLKKLVLYLKNGADCPCHQLDNLSHHFLIMGRKVKSQYLLTAIHKWDKKNKEFKNFMKKMKNHECPTFQSVFK | no effect | striking reduction | inhibition of constitutively up-regulated β-catenin | more sensitive to induction of apoptosis | able to inhibit | inhibition of constitutively up-regulated β-catenin | – | –
DKK1: Dickkopf-1, secreted Wnt antagonist protein that binds Wnt co-receptor LRP6; used purified, in conditioned media or retrovirally expressed with HA tag (protein, UniProt O94907 32-266, looked up, HA tag in some uses) Dickkopf-related protein 1: TLNSVLNSNAIKNLPPPLGGAAGHPGSAVSAAPGILYPGGNKYQTIDNYQPYPCAEDEECGTDEYCASPTRGGDAGVQICLACRKRRKRCMRHAMCCPGNYCKNGICVSSDQNHFRGEIEETITESFGNDHSTLDGYSRRTTLSSKMYHTKGQEGSVCLRSSDCASGLCCARHFWSKICKPVLKEGQVCTKHRRKGSHGLEIFQRCYCGEGLSCRIQKDHHQASNSSRLHTCQRH | – | – | – | more sensitive to induction of apoptosis | – | – | inhibition of constitutively up-regulated β-catenin | striking reduction
